Measurements taken from the Human Domainome abundance scans (Beltran et al. 2025).
± gives the uncertainty stated by the source.

B1: RanBP-type and C3HC4-type zinc finger-containing protein 1, residues 369 to 411; numbered along this chain, Q9BYM8 (parent)
chain: YHCKTPDCKGWCFFEDDVNEFTCPVCFHVNCLLCKAIHEQMNC

Variants of: B1
Assay: abundance fitness (aPCA) (normalised: wild type 0, dead -1); higher = more abundant; growth selection in yeast, the domain comes from the species named
Conditions: Homo sapiens

With C3D as the variant, how does the abundance fitness read?
Its abundance fitness is -0.969 ± 0.1.

Which abundance fitness does the source give for C3T here?
Its abundance fitness is -0.937 ± 0.098.

With C3I as the variant, how does the abundance fitness read?
Its abundance fitness is -0.593 ± 0.14.

For F14Q, which abundance fitness is on record?
The abundance fitness was -0.295 ± 0.12.

Which abundance fitness does the source give for V18P here?
Its abundance fitness is 0.048 ± 0.067.

Which abundance fitness does the source give for V18N here?
The abundance fitness was -0.267 ± 0.083.

Which abundance fitness does the source give for V18S here?
The abundance fitness was -0.055 ± 0.052.

With Q40F as the variant, how does the abundance fitness read?
The abundance fitness was -0.54 ± 0.12.

With Q40A as the variant, how does the abundance fitness read?
Its abundance fitness is -0.094 ± 0.043.

With Q40H as the variant, how does the abundance fitness read?
Its abundance fitness is -0.031 ± 0.076.

With Q40S as the variant, how does the abundance fitness read?
The abundance fitness was 0.023 ± 0.041.

For Q40P, which abundance fitness is on record?
Its abundance fitness is 0.005 ± 0.049.

With Q40V as the variant, how does the abundance fitness read?
Its abundance fitness is -0.32 ± 0.053.

Which abundance fitness does the source give for H38M here?
Its abundance fitness is -0.89 ± 0.15.

Which abundance fitness does the source give for H38Q here?
The abundance fitness was -0.63 ± 0.06.

For H38T, which abundance fitness is on record?
Its abundance fitness is -0.639 ± 0.088.

For H38R, which abundance fitness is on record?
The abundance fitness was -0.699 ± 0.055.

Which abundance fitness does the source give for H38S here?
Its abundance fitness is -0.614 ± 0.052.

Which abundance fitness does the source give for T5M here?
The abundance fitness was 0.003 ± 0.059.

For T5S, which abundance fitness is on record?
The abundance fitness was -0.054 ± 0.059.

For T5Y, which abundance fitness is on record?
The abundance fitness was -0.169 ± 0.098.

With C8R as the variant, how does the abundance fitness read?
Its abundance fitness is -0.908 ± 0.055.

With C8S as the variant, how does the abundance fitness read?
Its abundance fitness is -0.682 ± 0.076.

Which abundance fitness does the source give for C8W here?
Its abundance fitness is -0.949 ± 0.13.

For C8Q, which abundance fitness is on record?
The abundance fitness was -0.736 ± 0.12.

For I37D, which abundance fitness is on record?
Its abundance fitness is -0.107 ± 0.076.

With I37P as the variant, how does the abundance fitness read?
The abundance fitness was -0.133 ± 0.051.

Which abundance fitness does the source give for I37F here?
The abundance fitness was -0.412 ± 0.086.

For I37M, which abundance fitness is on record?
The abundance fitness was -0.214 ± 0.076.

With G10L as the variant, how does the abundance fitness read?
The abundance fitness was -0.945 ± 0.077.

For G10V, which abundance fitness is on record?
The abundance fitness was -0.779 ± 0.081.

With G10S as the variant, how does the abundance fitness read?
Its abundance fitness is -0.587 ± 0.067.

Which abundance fitness does the source give for C43A here?
Its abundance fitness is -0.372 ± 0.076.

With C43H as the variant, how does the abundance fitness read?
The abundance fitness was -0.23 ± 0.12.

Which abundance fitness does the source give for C43T here?
The abundance fitness was -0.216 ± 0.089.

Which abundance fitness does the source give for C43E here?
Its abundance fitness is -0.427 ± 0.15.

Which abundance fitness does the source give for C43G here?
The abundance fitness was -0.29 ± 0.057.

With C43R as the variant, how does the abundance fitness read?
Its abundance fitness is -0.323 ± 0.045.

For C31G, which abundance fitness is on record?
Its abundance fitness is -0.655 ± 0.041.

Which abundance fitness does the source give for C31R here?
Its abundance fitness is -0.558 ± 0.04.

With C31M as the variant, how does the abundance fitness read?
Its abundance fitness is -0.725 ± 0.098.

For W11N, which abundance fitness is on record?
Its abundance fitness is 0.063 ± 0.071.

With W11T as the variant, how does the abundance fitness read?
The abundance fitness was 0.176 ± 0.049.

With W11S as the variant, how does the abundance fitness read?
Its abundance fitness is 0.132 ± 0.047.

Which abundance fitness does the source give for W11G here?
The abundance fitness was -0.172 ± 0.037.

With Y1M as the variant, how does the abundance fitness read?
Its abundance fitness is 0.028 ± 0.099.

For Y1F, which abundance fitness is on record?
The abundance fitness was -0.282 ± 0.2.

With Y1N as the variant, how does the abundance fitness read?
Its abundance fitness is -0.408 ± 0.069.

For Y1D, which abundance fitness is on record?
Its abundance fitness is 0.004 ± 0.33.

For Y1G, which abundance fitness is on record?
The abundance fitness was -0.331 ± 0.049.

Which abundance fitness does the source give for C23S here?
The abundance fitness was -0.904 ± 0.098.

With C23L as the variant, how does the abundance fitness read?
Its abundance fitness is -0.89 ± 0.17.

For C23A, which abundance fitness is on record?
The abundance fitness was -0.794 ± 0.073.

For P6H, which abundance fitness is on record?
Its abundance fitness is -0.434 ± 0.12.

With P6G as the variant, how does the abundance fitness read?
The abundance fitness was -0.494 ± 0.044.

Which abundance fitness does the source give for P6W here?
The abundance fitness was -0.629 ± 0.11.

For N30V, which abundance fitness is on record?
Its abundance fitness is -1.04 ± 0.11.

For N30C, which abundance fitness is on record?
The abundance fitness was -0.777 ± 0.12.

For N30W, which abundance fitness is on record?
Its abundance fitness is -0.855 ± 0.083.

With N30T as the variant, how does the abundance fitness read?
Its abundance fitness is -0.57 ± 0.06.

With N30D as the variant, how does the abundance fitness read?
Its abundance fitness is -0.79 ± 0.15.

With K9F as the variant, how does the abundance fitness read?
The abundance fitness was -0.378 ± 0.093.

Which abundance fitness does the source give for K9G here?
Its abundance fitness is -0.042 ± 0.036.

With K9V as the variant, how does the abundance fitness read?
Its abundance fitness is 0.026 ± 0.04.

Which abundance fitness does the source give for K9H here?
The abundance fitness was -0.259 ± 0.079.

For K9Y, which abundance fitness is on record?
The abundance fitness was -0.485 ± 0.19.

With C26A as the variant, how does the abundance fitness read?
The abundance fitness was -0.713 ± 0.069.

With C26W as the variant, how does the abundance fitness read?
Its abundance fitness is -1.07 ± 0.093.

With C26S as the variant, how does the abundance fitness read?
Its abundance fitness is -0.804 ± 0.14.

With C26D as the variant, how does the abundance fitness read?
The abundance fitness was -0.567 ± 0.078.

With P24V as the variant, how does the abundance fitness read?
Its abundance fitness is -0.774 ± 0.066.

With P24T as the variant, how does the abundance fitness read?
Its abundance fitness is -0.324 ± 0.06.

For K35C, which abundance fitness is on record?
Its abundance fitness is -0.069 ± 0.1.

Which abundance fitness does the source give for K35I here?
Its abundance fitness is -0.843 ± 0.18.

Which abundance fitness does the source give for K35F here?
Its abundance fitness is -0.149 ± 0.059.

For K35A, which abundance fitness is on record?
The abundance fitness was -0.147 ± 0.046.

Which abundance fitness does the source give for K35R here?
Its abundance fitness is -0.021 ± 0.043.

With A36P as the variant, how does the abundance fitness read?
The abundance fitness was -0.333 ± 0.064.

With A36N as the variant, how does the abundance fitness read?
The abundance fitness was -0.111 ± 0.065.

For A36T, which abundance fitness is on record?
The abundance fitness was 0.005 ± 0.047.

For A36L, which abundance fitness is on record?
Its abundance fitness is -0.534 ± 0.053.

For A36R, which abundance fitness is on record?
Its abundance fitness is -0.015 ± 0.043.

Which abundance fitness does the source give for A36C here?
Its abundance fitness is -0.154 ± 0.071.
